Results taken from the supplement of paper PMC11246515.
± gives the standard deviation of the averaged measurements.

Assay: total protein half-life in vivo (active degradation + dilution); higher = more stable protein
[1] = E. coli NCM3722 delta-clpP delta-lon delta-hslV, growth: N-lim chemostat, doubling time 6 h
[2] = E. coli NCM3722 delta-clpP, growth: N-lim chemostat, doubling time 6 h
[3] = E. coli NCM3722 delta-lon, growth: N-lim chemostat, doubling time 6 h
[4] = E. coli NCM3722 delta-smpB, growth: N-lim chemostat, doubling time 6 h
[5] = wild type E. coli NCM3722, growth: C-lim chemostat, doubling time 3 h
[6] = wild type E. coli NCM3722, growth: C-lim chemostat, doubling time 6 h
[7] = wild type E. coli NCM3722, growth: N-lim chemostat, doubling time 6 h
[8] = wild type E. coli NCM3722, growth: N-lim chemostat, doubling time 12 h
[9] = wild type E. coli NCM3722, growth: P-lim chemostat, doubling time 6 h
[10] = wild type E. coli NCM3722, growth: P-lim chemostat, doubling time 12 h
[11] = wild type E. coli NCM3722, growth: C-lim chemostat, doubling time 12 h
[12] = E. coli NCM3722 delta-hslV, growth: N-lim chemostat, doubling time 6 h

MLSLYEKIKIRLIILFLLAALSFIGLFFIINYQLVSERAVKRADSRFELIQKNVGYFFKDIERSALTLKDSLYLLKNTEEIQRAVILKMEMMPFLDSVGLVLDDNKYYLFSRRANDKIVVYHQEQVNGPLVDESGRVIFADFNPSKRPWSVASDDSNNSWNPAYNCFDRPGKKCISFTLHINGKDHDLLAVDKIHVDLNWRYLNEYLDQISANDEVLFLKQGHEIIAKNQLAREKLIIYNSEGNYNIIDSVDTEYIEKTSAVPNNALFEIYFYYPGGNLLNASDKLFYLPFAFIIIVLLVVYLMTTRVFRRQFSEMTELVNTLAFLPDSTDQIEALKIREGDAKEIISIKNSIAEMKDAEIERSNKLLSLISYDQESGFIKNMAIIESNNNQYLAVGIIKLCGLEAVEAVFGVDERNKIVRKLCQRIAEKYAQCCDIVTFNADLYLLLCRENVQTFTRKIAMVNDFDSSFGYRNLRIHKSAICEPLQGENAWSYAEKLKLAISSIRDHMFSEFIFCDDAKLNEIEENIWIARNIRHAMEIGELFLVYQPIVDINTRAILGAEALCRWVSAERGIISPLKFITIAEDIGFINELGYQIIKTAMGEFRHFSQRASLKDDFLLHINVSPWQLNEPHFHERFTTIMKENGLKANSLCVEITETVIERINEHFYLNIEQLRKQGVRISIDDFGTGLSNLKRFYEINPDSIKVDSQFTGDIFGTAGKIVRIIFDLARYNRIPVIAEGVESEDVARELIKLGCVQAQGYLYQKPMPFSAWDKSGKLVKE
total protein half-life in vivo [1]: 5.7 ± 1.7 h | total protein half-life in vivo [2]: 7.04 ± 0.45 h | total protein half-life in vivo [3]: 6.67 ± 0.23 h | total protein half-life in vivo [4]: 6.334 ± 0.039 h | total protein half-life in vivo [5]: 3 ± 0.23 h | total protein half-life in vivo [6]: 5.9 ± 0.19 h | total protein half-life in vivo [7]: 5.88 ± 0.38 h | total protein half-life in vivo [8]: 12.8 ± 1.2 h | total protein half-life in vivo [9]: 6.03 ± 0.13 h | total protein half-life in vivo [10]: 11.8 ± 1 h

MLSNDILRSVRYILKANNNDLVRILALGNVEATAEQIAVWLRKEDEEGFQRCPDIVLSSFLNGLIYEKRGKDESAPALEPERRINNNIVLKKLRIAFSLKTDDILAILTEQQFRVSMPEITAMMRAPDHKNFRECGDQFLRYFLRGLAARQHVKKG
total protein half-life in vivo [1]: 5.25 ± 0.12 h | total protein half-life in vivo [3]: 6.64 ± 0.089 h | total protein half-life in vivo [4]: 5.21 ± 0.48 h | total protein half-life in vivo [5]: 3.21 ± 0.69 h | total protein half-life in vivo [6]: 6.3 ± 0.61 h | total protein half-life in vivo [11]: 11.7 ± 1 h | total protein half-life in vivo [7]: 5.08 ± 0.49 h | total protein half-life in vivo [8]: 8.7 ± 0.92 h | total protein half-life in vivo [9]: 4.99 ± 0.15 h

MLSTQFNRDNQYQAITKPSLLAGCIALALLPSAAFAAPATEETVIVEGSATAPDDGENDYSVTSTSAGTKMQMTQRDIPQSVTIVSQQRMEDQQLQTLGEVMENTLGISKSQADSDRALYYSRGFQIDNYMVDGIPTYFESRWNLGDALSDMALFERVEVVRGATGLMTGTGNPSAAINMVRKHATSREFKGDVSAEYGSWNKERYVADLQSPLTEDGKIRARIVGGYQNNDSWLDRYNSEKTFFSGIVDADLGDLTTLSAGYEYQRIDVNSPTWGGLPRWNTDGSSNSYDRARSTAPDWAYNDKEINKVFMTLKQQFADTWQATLNATHSEVEFDSKMMYVDAYVNKADGMLVGPYSNYGPGFDYVGGTGWNSGKRKVDALDLFADGSYELFGRQHNLMFGGSYSKQNNRYFSSWANIFPDEIGSFYNFNGNFPQTDWSPQSLAQDDTTHMKSLYAATRVTLADPLHLILGARYTNWRVDTLTYSMEKNHTTPYAGLVFDINDNWSTYASYTSIFQPQNDRDSSGKYLAPITGNNYELGLKSDWMNSRLTTTLAIFRIEQDNVAQSTGTPIPGSNGETAYKAVDGTVSKGVEFELNGAITDNWQLTFGATRYIAEDNEGNAVNPNLPRTTVKMFTSYRLPVMPELTVGGGVNWQNRVYTDTVTPYGTFRAEQGSYALVDLFTRYQVTKNFSLQGNVNNLFDKTYDTNVEGSIVYGTPRNFSITGTYQF
total protein half-life in vivo [5]: 3.33 ± 0.05 h | total protein half-life in vivo [11]: > 16 h

MLTLLHLLSAVALLVWGTHIVRTGVMRVFGARLRTVLSRSVEKKPLAFCAGIGVTALVQSSNATTMLVTSFVAQDLVALAPALVIVLGADVGTALMARILTFDLSWLSPLLIFIGVIFFLGRKQSRAGQLGRVGIGLGLILLALELIVQAVTPITQANGVQVIFASLTGDILLDALIGAMFAIISYSSLAAVLLTATLTAAGIISFPVALCLVIGANLGSGLLAMLNNSAANAAARRVALGSLLFKLVGSLIILPFVHLLAETMGKLSLPKAELVIYFHVFYNLVRCLVMLPFVDPMARFCKTIIRDEPELDTQLRPKHLDVSALDTPTLALANAARETLRIGDAMEQMMEGLNKVMHGEPRQEKELRKLADDINVLYTAIKLYLARMPKEELAEEESRRWAEIIEMSLNLEQASDIVERMGSEIADKSLAARRAFSLDGLKELDALYEQLLSNLKLAMSVFFSGDVTSARRLRRSKHRFRILNRRYSHAHVDRLHQQNVQSIETSSLHLGLLGDMQRLNSLFCSVAYSVLEQPDEDEGRDEY [P0AF43]
total protein half-life in vivo [1]: 6.4 h | total protein half-life in vivo [2]: 6.35 ± 0.26 h | total protein half-life in vivo [12]: 5.73 ± 0.74 h | total protein half-life in vivo [6]: 5.38 ± 0.19 h | total protein half-life in vivo [7]: 6.48 h | total protein half-life in vivo [8]: 10.5 ± 4.5 h | total protein half-life in vivo [9]: 6.1173 ± 0.0061 h | total protein half-life in vivo [10]: 11.55 ± 0.033 h

MLTRLREIVEKVASAPRLNEALNILVTDICLAMDTEVCSVYLADHDRRCYYLMATRGLKKPRGRTVTLAFDEGIVGLVGRLAEPINLADAQKHPSFKYIPSVKEERFRAFLGVPIIQRRQLLGVLVVQQRELRQYDESEESFLVTLATQMAAILSQSQLTALFGQYRQTRIRALPAAPGVAIAEGWQDATLPLMEQVYQASTLDPALERERLTGALEEAANEFRRYSKRFAAGAQKETAAIFDLYSHLLSDTRLRRELFAEVDKGSVAEWAVKTVIEKFAEQFAALSDNYLKERAGDLRALGQRLLFHLDDANQGPNAWPERFILVADELSATTLAELPQDRLVGVVVRDGAANSHAAIMVRALGIPTVMGADIQPSVLHRRTLIVDGYRGELLVDPEPVLLQEYQRLISEEIELSRLAEDDVNLPAQLKSGERIKVMLNAGLSPEHEEKLGSRIDGIGLYRTEIPFMLQSGFPSEEEQVAQYQGMLQMFNDKPVTLRTLDVGADKQLPYMPISEENPCLGWRGIRITLDQPEIFLIQVRAMLRANAATGNLNILLPMVTSLDEVDEARRLIERAGREVEEMIGYEIPKPRIGIMLEVPSMVFMLPHLAKRVDFISVGTNDLTQYILAVDRNNTRVANIYDSLHPAMLRALAMIAREAEIHGIDLRLCGEMAGDPMCVAILIGLGYRHLSMNGRSVARAKYLLRRIDYAEAENLAQRSLEAQLATEVRHQVAAFMERRGMGGLIRGGL
total protein half-life in vivo [1]: 5.82 ± 0.99 h | total protein half-life in vivo [2]: 5.146 ± 0.0092 h | total protein half-life in vivo [12]: 4.39 ± 0.15 h | total protein half-life in vivo [3]: 4.53 ± 0.17 h | total protein half-life in vivo [4]: 4.44 ± 0.084 h | total protein half-life in vivo [5]: 3.06 ± 0.15 h | total protein half-life in vivo [6]: 5.78 ± 0.21 h | total protein half-life in vivo [11]: 10.7 ± 0.17 h | total protein half-life in vivo [7]: 4.37 ± 0.11 h | total protein half-life in vivo [8]: 7.03 ± 0.12 h | total protein half-life in vivo [9]: 6.54 ± 0.36 h | total protein half-life in vivo [10]: 11.5 ± 1.8 h

MLTSFKLHSLKPYTLKSSMILEIITYILCFFSMIIAFVDNTFSIKIYNITAIVCLLSLILRGRQENYNIKNLILPLSIFLIGLLDLIWYSAFKVDNSPFRATYHSYLNTAKIFIFGSFIVFLTLTSQLKSKKESVLYTLYSLSFLIAGYAMYINSIHENDRISFGVGTATGAAYSTMLIGIVSGVAILYTKKNHPFLFLLNSCAVLYVLALTQTRATLLLFPIICVAALIAYYNKSPKKFTSSIVLLIAILASIVIIFNKPIQNRYNEALNDLNSYTNANSVTSLGARLAMYEIGLNIFIKSPFSFRSAESRAESMNLLVAEHNRLRGALEFSNVHLHNEIIEAGSLKGLMGIFSTLFLYFSLFYIAYKKRALGLLILTLGIVGIGLSDVIIWARSIPIIIISAIVLLLVINNRNNTIN
total protein half-life in vivo [4]: 5.65 ± 0.45 h | total protein half-life in vivo [5]: 3.42 h

MLTVIAEIRTRPGQHHRQAVLDQFAKIVPTVLKEEGCHGYAPMVDCAAGVSFQSMAPDSIVMIEQWESIAHLEAHLQTPHMKAYSEAVKGDVLEMNIRILQPGI [P0ADU2]
total protein half-life in vivo [1]: 5.001 ± 0.017 h | total protein half-life in vivo [12]: 4.57 ± 0.38 h | total protein half-life in vivo [3]: 5.31 ± 0.5 h | total protein half-life in vivo [4]: 4.72 ± 0.06 h | total protein half-life in vivo [5]: 3.14 ± 0.34 h | total protein half-life in vivo [6]: 5.35 ± 0.099 h | total protein half-life in vivo [11]: 10.4 ± 0.39 h | total protein half-life in vivo [7]: 4.36 ± 0.28 h | total protein half-life in vivo [8]: 7 ± 0.33 h | total protein half-life in vivo [9]: 5.84 ± 0.12 h | total protein half-life in vivo [10]: 11.6 ± 0.82 h
